This passage reports Kd results from PMC7396596.

This experiment deals with Recombinant SCY2 (Scylla paramamosain). The experiment in a line: SPR; Biacore T200, CM5 chip; rSCY2 immobilised (~1,000 RU); rScyreprocin 12.5-400 nM flowed over; multiple cycle kinetics, 25°C, 30 μl/min, HEPES-buffered saline. Background: In SPR one partner is held on a chip, and binding of the other changes the refractive index at the surface.

A word on the Kd: it is the concentration at which binding is half-saturated. “His-tagged scyreprocin (rScyreprocin) (natural protein)”: the equilibrium dissociation constant (Kd) was determined as 20.8 nM.
